# T1: U2AF1 (human, UniProt Q01081 1-240)
# T1 sequence: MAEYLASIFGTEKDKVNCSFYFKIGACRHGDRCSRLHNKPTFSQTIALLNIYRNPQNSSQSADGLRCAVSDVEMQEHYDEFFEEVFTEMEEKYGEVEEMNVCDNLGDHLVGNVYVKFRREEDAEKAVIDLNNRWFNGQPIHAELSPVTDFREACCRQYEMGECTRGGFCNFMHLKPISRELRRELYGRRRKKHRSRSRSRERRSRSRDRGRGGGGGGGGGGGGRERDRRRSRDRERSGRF
# T2: U2AF1-ZF2 (human, UniProt Q01081 149-176)
# T2 chain: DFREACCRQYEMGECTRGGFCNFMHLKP
# B1: RNA/DNA hybrid (DNA:RNA)
# ?: GCGAGGGGCGGCCGGAGAGC
# DNA: GCTCTCCGGCCGCCCCTCGC
# B2: cMYC G4-R-loop (mixed)
# ?: GCGAGGGGCGGCCGGAGAGC
# DNA 1: CCGCTCCGGCAGCTCAGGCCCTGGCGCTCTCCGGCCGCCCCTCGCCCGCCCGGGCTCCTCCTCCTGTGCC
# DNA 2: GGCACAGGAGGAGGAGTTTTTTCTGAGGGTGGGGAGGGTGGGGAAGGCATTTTTTGAGCTGCCGGAGCGG
# B3: cMYC M4-R-loop (mixed)
# ?: GCGAGGGGCGGCCGGAGAGC
# DNA 1: CCGCTCCGGCAGCTCAGGCCCTGGCGCTCTCCGGCCGCCCCTCGCCCGCCCGGGCTCCTCCTCCTGTGCC
# DNA 2: GGCACAGGAGGAGGAGTTTTTTCTGAGGGTGAGGAGTGTGGGGAAGGCATTTTTTGAGCTGCCGGAGCGG
# Columns and labels:
# U2AF1 [1] = target: T1, U2AF1; experiment: fluorescence anisotropy; 100 mM K+; Anisotropy: 10 nM probe, 10 mM Tris-HCl pH 7.5, 1 mM EDTA, 100 mM KCl, 0.1 mM DTT, 10 ug/mL BSA, 30 min on ice; EMSA same but Tris pH 8.0, 6% native PAGE in 1x; settings: protein: recombinant, tags: His6 (pET30a), label: 5' TAMRA
# U2AF1 [2] = target: T1, U2AF1; experiment: fluorescence anisotropy; Anisotropy: 10 nM probe, 10 mM Tris-HCl pH 7.5, 1 mM EDTA, 100 mM KCl, 0.1 mM DTT, 10 ug/mL BSA, 30 min on ice; EMSA same but Tris pH 8.0, 6% native PAGE in 1x; settings: protein: recombinant, tags: His6 (pET30a)
# U2AF1-ZF2 = target: T2, U2AF1-ZF2; experiment: as above; settings: protein: recombinant; tags: His6 (pET30a); label: 5' TAMRA; parallel intramolecular G4
binder,measurement,setting,value
AAAGGGTTAGGGTTAGGGTTAGGGAA (structured_DNA) [hTel_G4],Kd,U2AF1 [1]; hybrid-type intramolecular G4,50 ± 6 nM
AGGGAGGGCGCTGGGAGGAGGG (structured_DNA) [cKIT_G4],Kd,U2AF1 [1]; parallel intramolecular G4,15 ± 2 nM
B1,Kd,"U2AF1 [2]; label: 5' Cy3 on RNA strand, blunt, strand 1 RNA, strand 2 DNA",6.7 nM
GGGTTAGTGTTAGTGTTAGGGT (ssDNA) [2KF8_M4],Kd,U2AF1 [1],10 ± 2 nM
AGGGAGGGCTCTGTGAGGAGGG (ssDNA) [cKIT_M4],Kd,U2AF1 [1],19 ± 4 nM
B2,Kd,"U2AF1 [2]; label: 5' Cy3 on RNA strand, R-loop bubble: strand 1 RNA, strand 2 template DNA, strand 3 displaced DNA, some slow-migrating putative intermolecular G4",3.5 nM
B3,Kd,"U2AF1 [2]; label: 5' Cy3 on RNA strand, R-loop bubble: strand 1 RNA, strand 2 template DNA, strand 3 displaced DNA",13 nM
UUUUAGGU (ssRNA) [U2AF1_RNA Motif (AG motif)],Kd,U2AF1 [2]; label: 5' Cy3,350 nM
AAAGGGTTAGTGTTAGTGTTAGGGAA (ssDNA) [hTel_M4],Kd,U2AF1 [1],60 ± 6 nM
TGAGGGTGGGGAGGGTGGGGAAGG (structured_DNA) [cMYC_G4],Kd,U2AF1 [1]; parallel intramolecular G4,10.8 ± 0.9 nM
same,binding signal,U2AF1-ZF2,> 10 fold lower affinity than full length
TGAGGGTGAGGAGTGTGGGGAAGG (ssDNA) [cMYC_M4],Kd,U2AF1 [1],22 ± 1 nM
GGGTTAGGGTTAGGGTTAGGGT (structured_DNA) [2KF8_G4],Kd,U2AF1 [1]; antiparallel intramolecular G4,9 ± 1 nM

# — PMC10557143, “Promoter R-Loops Recruit U2AF1 to Modulate Its Phase Separation and RNA Splicing”
